From the DeepSol protein solubility set

experiment: soluble on expression in E. coli; label from the status in PepcDB or PDB records

Soluble on expression in E. coli, not soluble:
MGSDKIHHHHHHMILVTGANGLVGSFLCNELAGKGYRVKALVREKSDTSLLKAVAGSIELVYGDITDAGSLVDAMEDVMCVVHTAAVISFWNKKNKEMYQTNVVGTRNVVDVALEKGVKKMIHISSIAAIGRKATDTRIDEKNNWEESAVNTAYAVTKHQAELEIFRAVEEGLHAVIINPSVILGPGLKGTSSVRLFEYVQQKGKFYTDGDLNYVDVRDVVESIEYFISHETPAGERYILNGGTVSFKTFFEKIAEMLHTNPPSVKASDWMKQIVWRVEAIKAFITGKEPLITKSTARTATNKFEYSADKIMQLSQRSFRPLQDTIYWTCKQLF
MGSDKIHHHHHHMINENQHMTEREPSTRRIKSMQTASEVLRELQSQSEATLSDLCGNIDVAKSTLHTYLQTLVAEGFIDKSDGVYRLGLRFIPLGESVRNRIDLYQLGKEEVKRLAEETNEWVHLTVAYRSREVTLYEHNGGETVAVDYQRRTRESPQYLHCTATGKALLAYFDDDRVTETVATEGLVQQTEQTITDPDELREELEEIRARGYAVNDEEEIRGMRSVGAPIQDVDGTVCGAISVTAPKTRLSGDYLYNDLPELVMEAANIIEINLESAAASGE
MGSDKIHHHHHHMINETRTTLDQSEVDHFSRIAAEWWNPHGKFRPLHQFNPTRLAYIREKICLELHRDPVSLKPFENLKILDIGCGGGLLCEPMARLGAMVVGADASQTNIEVAKIHAAQNGLSIDYRTTTAEALATEGEQFDIILNMEVVEHVADVNLFIEATAKMLKPQGLMFISTLNRTWKAWGLAIIGAEYILRWLPKGTHNYKKFLKPRELKNLLLQNALTVVDEIGVTYNPLNDSWNRSKDMNVNYLLLAKKS
MGSDKIHHHHHHMINFLPYSLDILRAADRDRYISVLFAPKKKRRALAALYAFNAEIARIRENVHNPLIGEIRLRWWYDSIAKSEMEKSESNPILSDLFMAMTLFNLPKTAFLRYCDAQILDLYHNPIATLYDLEFYCGETASIILQLSCQILDPDMAQNFTDAYQHAGIAQGLSGVLRLLSFMQSRYQYYLPADMLKALGIKREELESNRISKEQKCHVIEAMVALSRDHYNRFYEYFNMMPKTLKPAFLPLAIIPASLQKAIQLGAAVFQENAALPLLHRYWFITKAAISSNLPKIL
MGSDKIHHHHHHMINSRARRNLIAQDSGEHRHDFPQILIGWRGEIECEFSKGSGRLNNGLVGIVPNAAEHLFRGLNNNSELLVIDVVLEDPYIQAMEQACNLSFSETLFKQPHFVSLAPEMLPLLEYSANQLLLDKKTATPQLNCQLVSLFMTQLSQMYSPEIKSSAINQRIEATRLNDIIDQRLARPPNNTELANLLHLSESHFYCICQQQFGVSPQKYVMRRRMQRAKFLLLNSKIPLSALASELGFSDVSSFSRAYKKYYQQPPGQTRTLFQLGLNANHASIRK
MGSDKIHHHHHHMINTDHPIRIAIAGLGFGESVHIPASLSNKNIELVGLWHPRPERLKEACNKHNLRAYETWEDLVNDSKVDGIIIATPPAPRYELALEAIKGGKHLLLEKPTCLNAYEVMELQRNALKRNLKIAVDYEYRAVPLFMQAKRIITEKKLDEPYFVKLDWLMSSRANPDRPWNWYSDENSGGGVLGALGTHAFDMIHWLIGPTHSLSAINSTSIEERECPQSKTIKKVTSEDVSISQLQIKSINNNLIPAQVNLSAVTKQSRGFSLEIYGSNGTLVLSSENQNDYVHGFGLWYSNKGDVLKNIQPDSDLSFSKIWTDGRIAPVARIQNWWAQSIADGTPVIPGLVEGLASQIVCDKVKESNSIGMKIEIN
MGSDKIHHHHHHMINVLILGAASQISRFLIPDLLADKTVYLTLFARQAPQRLGQYAGESRVTLVDGDWNQEADIEQVMSNQDIVFLASSSLVGNQNVVTVMKHTGVQRLIVAGGLGIDDEVAGKFGNWNTRMMGDYTPYKQAAKVILDSGLNTTYLRMTWLYDENGNEKYQIVPEGQPLRGTQVTRQAVAKLVTAIVRQPSLYQYANIGVVEPGTEWDKPSFY
MGSDKIHHHHHHMIPEKKSIAIMKELSIGNTKQMLMINGVDVKNPLLLFLHGGPGTPQIGYVRHYQKELEQYFTVVHWDQRGSGLSYSKRISHHSMTINHFIKDTIQVTQWLLAHFSKSKLYLAGHSWGSILALHVLQQRPDLFYTYYGISQVVNPQDEESTAYQHIREISESKKASILSFLTRFIGAPPWKQDIQHLIYRFCVELTRGGFTHRHRQSLAVLFQMLTGNEYGVRNMHSFLNGLRFSKKHLTDELYRFNAFTSVPSIKVPCVFISGKHDLIVPAEISKQYYQELEAPEKRWFQFENSAHTPHIEEPSLFANTLSRHARNHL
MGSDKIHHHHHHMIQTPVIVTFANQKGGVGKTTLCVTFANYLVAKGVRVLVIDCDFQHSIMKCRKADIKKYGEEQLPYEVWSYEPNNKVEMTSLVEKLHNDPEIDVVLIDSPGSLKAEGLVPIFVNSDIIVVPFHYDLVTIPSTASFLLFLDRLRQAVGERMKAQLFIIPNLNDNRVGKRSELILWDNTRETFSNYGYVTGKIPRRADMERFSTIAALDMQYRYVSSVFDKIYFSIFDKTGPIREMELSGIQLTENLYPKSGKKKYQAETSTHIALDEAEDEEQENNSEHQHNQ
MGSDKIHHHHHHMIRFRNFWLPIWNRKMSMKNLYENDLLYRTTGPALRPGGFELTDWAVEHCRFQAGDRILDVGCGRGATVNRLRSHYHLEAYGIDPSATLLTLGQETYPDLPLSKGRGEDIPFTNSCFDGVFVECSLSLMTDPDQALSEIRRVLKVKGKLIIHDVYARNPQGTPDLRELNIGTCIRNALVKEDLEHGLESKGLRTIHWQDHSPLLNRLMMELIMTHGSMSAFWLKSTDCSADPNRVQAALKKAKVGYFQLIAEKEAEKEAEHCPVR
MGSDKIHHHHHHMIRINVVGFKGGSGKSTISYHLARQLSEYYNVVLVDKTYSGTISRIYNINNNIFSFLKGRNELFYINKNNLSVINMSFLNEDDLNGIDFNAFKYLYSKLTKDSDIVIVDHSSIPHDFATEIELKAFMENFRNFAYNTVLVLSGDEIPIKKYLNYTVLLNDFVKNYAEKILGISLPTDVKFLKIVAVIINKILKGQESKLEEFIRGDEILQRSARFIIPYYLSLTQRHFKDIDPPKEISDITRYILDFLREPTSIL
MGSDKIHHHHHHMISFFLSDLIKSILNIQDNNISFSEEECCQVTQKGDYLLKVFKGFLKSDYCTCPHCSSKNIVKNGSRHRKIKYIPIQNYNIELELTVQRYICKDCKKNFSPSTNIVSDNSSISNNLKYAIALELQKNISLTSIAKRYNISIPSVQRIMDNCYSDFKVNKKHLPEAICIDEFKSVKNIDGAMSFVFADYQSKSIIDIVEDRRLHSLTEYFSRFSLEARNNVKYICMDMYTSYISLVNSIFPNAKIVLDKFHIVNLVNRAFNQTRISIMNSIQDDSLKRKFKLFWKSLLKYYPDLCQINYYCQSFKRKLSSKLSLRKKP
MGSDKIHHHHHHMISNLYFVKLKNIGEHEFIKRYIKNYMDIKLLDDVFINEKRGYKVDGFKLSYAFPFMSLYDIGWKAISASTSDIIAKGVKPEFYLISLGLPPDFDVNKAEELIGGISDAIHYYGGRYVGGDLNDSDSNGWVDVFVEGEVLCDISDKVIDDGDLLVIGDYIGYTTNVFISYINNFNIQILPESLLKVKHPIVKKSLLFFMKKYCKFIKYSTDISDGLMVSLYKIVDNFNLGINITEIPIDKNVFNSLKLRLNLTELDILKYAGEEFLPLLIIDKNSPVKEMLAELQYLAFNPLIIGQVIHENRLITYKNTVIKNTGWDNFIGWY
MGSDKIHHHHHHMISQNRLRVLARELGVRQGYAEKNYVNSWILWGIFTSDFGENLMFKGGTALSKLYFPQSWRFSEDLDFGVEGQYNGSEDDLRDVLDTVTERSGIEFTISEHHESRQQHYPTHYVDMSIQYRAVLDHPNTTSLDVMVDEYVAFDSVHHTHSYEDIPEFELQAYSVEEIFAEKLRAIFQRGAARDYYDLYQLLETESVEIEFDVVLPAFEAKCDHDDLDVDLTTGLPGDQREDIQRQWETSLPDLTGDPPLFDTVWKRLDEAVIDKGTE
MGSDKIHHHHHHMISYGELIRQIRQSKKISQKEVYTGVISKSYAIEFEKGTHAISSLLLEKIVAKLMVSMEEFFLMYHQEALPEKEDFWEAYARTCKTDEASAWESLYQKISLEKGKVNQVKSAAIKLELDHIKGKQVADKKAVQILENYLIEAVFWTLQDIFLFTRMMHYLPLKSRVPFYYKLLNTLDRYRHFERGRSISQSALASIMDDFIEKNEIEYMELMIKSLEKISEDCDGTYSKILCMYYRGIVRWREGEKREGSEEIEQAVAILRALGYENKAAEYETMYRQFARENNDIKTME
